Source: the supplement of paper PMC10567573

B1: FAM107A (parent)
chain: HRRGLGVDSKPELQRVLEHRRRNQ

Variants of: B1
Assay: protein stability index of a GFP-peptide fusion (GPS, HEK-293T) (PSI 1-6); higher = more stable
Conditions: c terminus: a fixed tail appended
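Note: lentivirally expressed fusions sorted by FACS into six bins by GFP to DsRed ratio, PSI derived from sequencing read proportions per bin multiplied by bin number.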

Variant	protein stability index
HRRGLGVDRKPELQRVLEHRRRNQ	4.8
HRRGLGVDDKPELQRVLEHRRRNQ	4.67
HRRGLGVDGKPELQRVLEHRRRNQ	4.41
HRRGLGVDWKPELQRVLEHRRRNQ	3.55
HRRGLGVDMKPELQRVLEHRRRNQ	4.14
HRRGLGVDEKPELQRVLEHRRRNQ	4.39
HRRGLGVDLKPELQRVLEHRRRNQ	4.15
HRRGLGVDHKPELQRVLEHRRRNQ	4.46
HRRGLGVDKKPELQRVLEHRRRNQ	4.76
HRRGLGVDIKPELQRVLEHRRRNQ	4.66
HRRGLGVDFKPELQRVLEHRRRNQ	3.52
HRRGLGVDYKPELQRVLEHRRRNQ	4.16
HRRGLGVDAKPELQRVLEHRRRNQ	2.99
HRRGLGVDVKPELQRVLEHRRRNQ	3.98
HRRGLGVDPKPELQRVLEHRRRNQ	4.38
HRRGLGVDSKPELHRVLEHRRRNQ	3.48
HRRGLGVDSKPELYRVLEHRRRNQ	3.15
HRRGLGVDSKPELNRVLEHRRRNQ	4.5
HRRGLGVDSKPELDRVLEHRRRNQ	4.07
HRRGLGVDSKPELTRVLEHRRRNQ	4.28
HRRGLGVDSKPELVRVLEHRRRNQ	3.86
HRRGLGVDSKPELGRVLEHRRRNQ	4.8
HRRGLGVDSKPELCRVLEHRRRNQ	4.03
HRRGLGVDSKPELFRVLEHRRRNQ	3.62

Variant	protein stability index
HRRGLGVDSKPELPRVLEHRRRNQ	4
HRRGLGVDSKPELMRVLEHRRRNQ	2.81
HRRGLGVDSKPELIRVLEHRRRNQ	2.75
HRRGLGVDSKPELSRVLEHRRRNQ	3.71
HRRGLGVDSKPELKRVLEHRRRNQ	3.39
HRRGLGDDSKPELQRVLEHRRRNQ	4.93
HRRGLGTDSKPELQRVLEHRRRNQ	4.79
HRRGLGQDSKPELQRVLEHRRRNQ	4.95
HRRGLGKDSKPELQRVLEHRRRNQ	4.33
HRRGLGFDSKPELQRVLEHRRRNQ	3.42
HRRGLGYDSKPELQRVLEHRRRNQ	4.23
HRRGLGCDSKPELQRVLEHRRRNQ	3.07
HRRGLGSDSKPELQRVLEHRRRNQ	4.88
HRRGLGMDSKPELQRVLEHRRRNQ	3.62
HRRGLGADSKPELQRVLEHRRRNQ	3.74
HRRGLGRDSKPELQRVLEHRRRNQ	4.39
HRRGLGHDSKPELQRVLEHRRRNQ	2.61
HRRGLGVDSCPELQRVLEHRRRNQ	3.82
HRRGLGVDSDPELQRVLEHRRRNQ	4.89
HRRGLGVDSQPELQRVLEHRRRNQ	4.92
HRRGLGVDSEPELQRVLEHRRRNQ	4.55
HRRGLGVDSAPELQRVLEHRRRNQ	4.56
HRRGLGVDSGPELQRVLEHRRRNQ	4.5
HRRGLGVDSSPELQRVLEHRRRNQ	5.01

Variant	protein stability index
HRRGLGVDSNPELQRVLEHRRRNQ	4.48
HRRGLGVDSLPELQRVLEHRRRNQ	2.36
HRRGLGVDSHPELQRVLEHRRRNQ	4.18
HRRGLGVDSWPELQRVLEHRRRNQ	2.6
HRRGLGVDSMPELQRVLEHRRRNQ	4.27
HRRGLGVDSTPELQRVLEHRRRNQ	4.38
HRRGLGVDSKPELQRVYEHRRRNQ	4.56
HRRGLGVDSKPELQRVGEHRRRNQ	5.21
HRRGLGVDSKPELQRVIEHRRRNQ	4.76
HRRGLGVDSKPELQRVHEHRRRNQ	4.34
HRRGLGVDSKPELQRVSEHRRRNQ	4.79
HRRGLGVDSKPELQRVDEHRRRNQ	5.01
HRRGLGVDSKPELQRVAEHRRRNQ	4.92
HRRGLGVDSKPELQRVWEHRRRNQ	3.71
HRRGLGVDSKPELQRVVEHRRRNQ	4.17
HRRGLGVDSKPELQRVEEHRRRNQ	4.21
HRRGLGVDSKPELQRVNEHRRRNQ	5.25
HRRGLGVDSKPELQRVKEHRRRNQ	4.53
HRRGLGVDSKPELQRVCEHRRRNQ	5.08
HRRGLGVDSKPELQRVQEHRRRNQ	4.99
HRRGLGVDSKPELQRVMEHRRRNQ	4.14
HRRGLGVDSKPELQRVPEHRRRNQ	4.7
HRRGLGVDSKPEMQRVLEHRRRNQ	4
HRRGLGVDSKPECQRVLEHRRRNQ	3.67

Variant	protein stability index
HRRGLGVDSKPEIQRVLEHRRRNQ	4.71
HRRGLGVDSKPEVQRVLEHRRRNQ	3.94
HRRGLGVDSKPENQRVLEHRRRNQ	5.21
HRRGLGVDSKPEAQRVLEHRRRNQ	4.31
HRRGLGVDSKPEGQRVLEHRRRNQ	4.94
HRRGLGVDSKPEHQRVLEHRRRNQ	4.93
HRRGLGVDSKPEKQRVLEHRRRNQ	4.97
HRRGLGVDSKPEFQRVLEHRRRNQ	4.75
HRRGLGVDSKPEQQRVLEHRRRNQ	5.33
HRRGLGVDSKPEDQRVLEHRRRNQ	5.59
HRRGLGVDSKPERQRVLEHRRRNQ	4.14
HRRGLGVDSKPEYQRVLEHRRRNQ	4.95
HRRGLGVDSKPEEQRVLEHRRRNQ	5.77
HRRGLGVDSKPETQRVLEHRRRNQ	5.23
HRRGLGVDSKPESQRVLEHRRRNQ	4.93
HRRGAGVDSKPELQRVLEHRRRNQ	4
HRRGIGVDSKPELQRVLEHRRRNQ	3.15
HRRGPGVDSKPELQRVLEHRRRNQ	4.16
HRRGEGVDSKPELQRVLEHRRRNQ	4.34
HRRGVGVDSKPELQRVLEHRRRNQ	3.46
HRRGYGVDSKPELQRVLEHRRRNQ	4.66
HRRGTGVDSKPELQRVLEHRRRNQ	4.82
HRRGMGVDSKPELQRVLEHRRRNQ	4.52
HRRGHGVDSKPELQRVLEHRRRNQ	4.21

Variant	protein stability index
HRRGKGVDSKPELQRVLEHRRRNQ	4.04
HRRGRGVDSKPELQRVLEHRRRNQ	5.2
HRRGFGVDSKPELQRVLEHRRRNQ	4.13
HRRGQGVDSKPELQRVLEHRRRNQ	5.16
HRRGLGVDSKPWLQRVLEHRRRNQ	3.5
HRRGLGVDSKPDLQRVLEHRRRNQ	2.18
HRRGLGVDSKPLLQRVLEHRRRNQ	4.02
HRRGLGVDSKPCLQRVLEHRRRNQ	4.11
HRRGLGVDSKPKLQRVLEHRRRNQ	4.18
HRRGLGVDSKPTLQRVLEHRRRNQ	2.98
HRRGLGVDSKPRLQRVLEHRRRNQ	2.99
HRRGLGVDSKPALQRVLEHRRRNQ	4.3
HRRGLGVMSKPELQRVLEHRRRNQ	3.18
HRRGLGVASKPELQRVLEHRRRNQ	2.92
HRRGLGVSSKPELQRVLEHRRRNQ	2.41
HRRGLGVNSKPELQRVLEHRRRNQ	3
HRRGLGVGSKPELQRVLEHRRRNQ	3.42
HRRGLGVKSKPELQRVLEHRRRNQ	3.79
HRRGLGVRSKPELQRVLEHRRRNQ	4.26
HRRGLGVQSKPELQRVLEHRRRNQ	3.34
HRRGLGVYSKPELQRVLEHRRRNQ	2.41
HRRGLGVESKPELQRVLEHRRRNQ	4.59
HRRGLGVHSKPELQRVLEHRRRNQ	3.74
HRRGLGVCSKPELQRVLEHRRRNQ	3.08

Variant	protein stability index
HRRGLGVVSKPELQRVLEHRRRNQ	4.07
HRRGLGVPSKPELQRVLEHRRRNQ	2.54
HRRGLGVFSKPELQRVLEHRRRNQ	2.23
HRRGLGVISKPELQRVLEHRRRNQ	3.74
HRRGLGVTSKPELQRVLEHRRRNQ	4.41
HRRYLGVDSKPELQRVLEHRRRNQ	4.32
HRRVLGVDSKPELQRVLEHRRRNQ	4.87
HRRGLGVDSKPELQRHLEHRRRNQ	3.96
HRRGLGVDSKPELQRSLEHRRRNQ	4.01
HRRGLGVDSKPELQRALEHRRRNQ	4.83
HRRGLGVDSKPELQRFLEHRRRNQ	4.23
HRRGLGVDSKPELQRILEHRRRNQ	3.63
HRRGLGVDSKPELQRQLEHRRRNQ	5.45
HRRGLGVDSKPELQRLLEHRRRNQ	4.03
HRRGLGVDSKPELQRNLEHRRRNQ	4.76
HRRGLGVDSKPELQRKLEHRRRNQ	4.47
HRRGLGVDSKPELQRPLEHRRRNQ	4.89
HRRGLGVDSKPELQRYLEHRRRNQ	4.46
HRRGLGVDSKPELQRGLEHRRRNQ	5.55
HRRGLGVDSKPELQRCLEHRRRNQ	4.44
HRRGLGVDSKPELQRTLEHRRRNQ	3.71
HRRGLGVDSKPELQRRLEHRRRNQ	4.67
HRRGLGVDSKPELQRDLEHRRRNQ	4.25
HRRGLGVDSKPELQQVLEHRRRNQ	3.56

Variant	protein stability index
HRRGLGVDSKPELQFVLEHRRRNQ	4.19
HRRGLGVDSKPELQKVLEHRRRNQ	3.31
HRRGLGVDSKPELQMVLEHRRRNQ	4.06
HRRGLGVDSKPELQDVLEHRRRNQ	4.26
HRRGLGVDSKPELQTVLEHRRRNQ	4.34
HRRGLGVDSKPELQEVLEHRRRNQ	4.17
HRRGLGVDSKPELQGVLEHRRRNQ	5.35
HRRGLGVDSKPELQSVLEHRRRNQ	4.43
HRRGLGVDSKPELQYVLEHRRRNQ	4.79
HRRGLGVDSKPELQPVLEHRRRNQ	4.89
HRRGLGVDSKPELQAVLEHRRRNQ	4.26
HRRGLGVDSKPELQHVLEHRRRNQ	4.25
HRRGLGVDSKPELQNVLEHRRRNQ	4.29
HRRGLGVDSKPELQWVLEHRRRNQ	3.21
HRRGLGVDSKQELQRVLEHRRRNQ	3.73
HRRGLGVDSKHELQRVLEHRRRNQ	4.35
HRRGLGVDSKYELQRVLEHRRRNQ	2.59
HRRGLGVDSKRELQRVLEHRRRNQ	4.13
HRRGLGVDSKWELQRVLEHRRRNQ	3.25
HRRGLGVDSKIELQRVLEHRRRNQ	3.42
HRRGLGVDSKAELQRVLEHRRRNQ	4.05
HRRGLGVDSKDELQRVLEHRRRNQ	4.29
HRRGLGVDSKVELQRVLEHRRRNQ	3.95
HRRGLGVDSKGELQRVLEHRRRNQ	4.55

Variant	protein stability index
HRRGLGVDSKMELQRVLEHRRRNQ	3.99
HRRGLGVDSKCELQRVLEHRRRNQ	4.13
HRRGLGVDSKKELQRVLEHRRRNQ	3.82
HRRGLGVDSKTELQRVLEHRRRNQ	3.51
HRRGLGVDSKPELQRVLLHRRRNQ	3.98
HRRGLGVDSKPELQRVLGHRRRNQ	3.58
HRRGLGVDSKPELQRVLAHRRRNQ	3.57
HRRGLGVDSKPELQRVLFHRRRNQ	3.93
HRRGLGVDSKPELQRVLDHRRRNQ	3.29
HRRGLTVDSKPELQRVLEHRRRNQ	2.78
HRRGLMVDSKPELQRVLEHRRRNQ	4.25
HRRGLKVDSKPELQRVLEHRRRNQ	2.56
HRRGLPVDSKPELQRVLEHRRRNQ	4.63
HRRGLDVDSKPELQRVLEHRRRNQ	2.51
HRRGLFVDSKPELQRVLEHRRRNQ	3.06
HRRGLAVDSKPELQRVLEHRRRNQ	1.82
HRRGLIVDSKPELQRVLEHRRRNQ	3.68
HRRGLYVDSKPELQRVLEHRRRNQ	3.5
HRRGLHVDSKPELQRVLEHRRRNQ	3.22
HRRGLQVDSKPELQRVLEHRRRNQ	3.18
